The text below walks through data of patent US12018066 (TRIAD NATIONAL SECURITY, dated 2024).

Values joined by “and” are separate entries in the source; they are usually repeats but may differ in a detail not shown here. Equal entries are not always repeated. Where two headings read alike, the source gives them in different places. Where only a bound is given, the exact number is not on record here.

Experiment [1] deals with T1, SARS-CoV-2 spike protein receptor binding domain (RBD2) (SARS-CoV-2, UniProt P0DTC2 319-537). The experiment is described as follows: flow cytometry, yeast-displayed scFv, titration of biotinylated antigen. Background: Flow cytometry measures light scatter and fluorescence of single cells or particles in a stream.
Experiment [2] concerns the target T1, SARS-CoV-2 spike protein receptor …. The experiment in a line: flow cytometry, yeast-displayed scFv.
Experiment [3] shares this target.
Experiment [4] shares this target. This is another data set of the same source.
For experiment [5] the target is unchanged. The experiment is described as follows: SPR sandwich binning, ligand H01.
For experiment [6] the target is unchanged. The experiment in a line: SPR sandwich binning, ligand H05.
Experiment [7] has the same target. The experiment is described as follows: SPR. (In general: In SPR one partner is held on a chip, and binding of the other changes the refractive index at the surface.)
The target is the same in experiment [8]. The experiment is described as follows: SPR sandwich binning, ligand B04.
In experiment [9] the target is SARS-CoV-2 spike protein on whole SARS-CoV-2 virus (SARS-CoV-2, UniProt P0DTC2 14-1273). The experiment in a line: cell-based or functional assay.
The target of experiment [10] is T1, SARS-CoV-2 spike protein receptor …. The experiment is described as follows: SPR sandwich binning, ligand NN54.
Experiment [11] shares this target. The experiment in a line: SPR sandwich binning, ligand F07.
The target is the same in experiment [12]. The experiment is described as follows: SPR sandwich binning, ligand S01.
The target is the same in experiment [13]. The experiment is described as follows: SPR sandwich binning, ligand CR3022.
Experiment [14] has the same target. This is another data set of the same source.
Experiment [15] has the same target. The experiment in a line: SPR sandwich binning, ligand Anti-His.
Experiment [16] has the same target. The experiment in a line: SPR sandwich binning, ligand E01.
Experiment [17] has the same target. The experiment is described as follows: SPR sandwich binning, ligand G07.
For experiment [18] the target is unchanged. The experiment is described as follows: SPR sandwich binning, ligand E08.
The target of experiment [19] is T2, human ACE2 receptor on HEK cells (Human ACE2 293 cell line) (human, UniProt Q9BYF1 18-805).
T2 construct: whole, on cells; also called HEK-ACE2; ACE2 293 cells
T2 sequence (Q9BYF1 18-805): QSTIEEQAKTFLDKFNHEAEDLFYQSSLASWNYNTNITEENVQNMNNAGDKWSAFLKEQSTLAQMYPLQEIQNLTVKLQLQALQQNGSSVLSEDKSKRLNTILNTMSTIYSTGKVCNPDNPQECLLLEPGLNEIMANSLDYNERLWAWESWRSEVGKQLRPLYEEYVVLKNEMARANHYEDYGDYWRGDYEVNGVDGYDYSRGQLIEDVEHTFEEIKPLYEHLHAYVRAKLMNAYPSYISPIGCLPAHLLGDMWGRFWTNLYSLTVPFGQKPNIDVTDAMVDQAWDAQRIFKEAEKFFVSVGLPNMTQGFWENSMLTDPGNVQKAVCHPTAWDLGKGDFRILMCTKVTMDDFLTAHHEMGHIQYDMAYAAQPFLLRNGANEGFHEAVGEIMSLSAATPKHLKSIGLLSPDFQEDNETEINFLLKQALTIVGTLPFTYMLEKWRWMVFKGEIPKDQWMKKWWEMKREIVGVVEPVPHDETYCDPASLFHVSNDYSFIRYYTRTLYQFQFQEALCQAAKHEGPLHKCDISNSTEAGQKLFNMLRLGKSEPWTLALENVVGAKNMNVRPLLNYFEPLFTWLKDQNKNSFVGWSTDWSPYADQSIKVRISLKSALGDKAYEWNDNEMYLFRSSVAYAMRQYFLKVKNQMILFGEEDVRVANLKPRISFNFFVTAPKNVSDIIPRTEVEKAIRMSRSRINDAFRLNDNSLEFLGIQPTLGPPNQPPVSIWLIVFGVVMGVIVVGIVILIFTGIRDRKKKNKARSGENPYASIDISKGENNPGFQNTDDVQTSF
The experiment is described as follows: fluorescence microscopy, PE-labelled IgG on HEK-ACE2 cells without RBD2-sfGFP.

In experiment [20] the target is T1, SARS-CoV-2 spike protein receptor …. The experiment is described as follows: SPR, immobilized antibody, RBD injected, 1:1 fit.
The target is the same in experiment [21]. The experiment in a line: flow cytometry, yeast-expressed scFv.

B1: S01 scFv (scFv)
scFv: EIVMTQSPSSLSASVGDSVTITCQASQDISNYLNWYQQKPGKAPKLLIYDASNLETGVPSRFSGGGSGTDFTLTITSLQPEDIATYYCQQYDNFPPTFGPGTKVDIKSGGSTITSYNVYYTKLSSSDTQVQLVESGGGLVKPGGSLRLSCAASGFTVGSNYMSWVRQAPGKGLEWVSVIYSGGSTYYADSVKGRFTISRDNSKNTLYLQMNSLRAEDTAVYYCARGSSGAWYFDLWGRGTLVTVSS
notes: also called 501
What is called Kd is a measure of binding affinity in units of concentration. As for B1, the Kd in experiment [1] stood at 44.1 nM; in [2] it was 44.1 nM; in experiment [3], 44.8 nM.

B2: G07 scFv (scFv)
scFv: QSVLIQPPSASGTPGQRVTISCSGSNSNFGSNSVSWYQQRPGTAPKLLIEGNNQRPSGVPERFSGSKSGTSASLAISGLQSEDEAEYSCASWDDSLNAFVFGPGTKLTVLSGGSAITSYNVYYTKLSSSGTQVQLVQSGAEVKKPGESLKISCKGSGYSFTSYWIGWVRQMPGKGLEWMGIIYPGDSDIRYSPSFQGQVTISADKSFSSAYLQWSSLKASDTAMYYCARLGATGAFDIWGQGTTVTVSS
Consider B2, for which the equilibrium dissociation constant (Kd) in experiment [1] was found to be 60.3 nM; in [4], 60.4 nM; in [2], 60.3 nM.

B3: R26 scFv (scFv)
scFv: SYELTQPPSVSVAPGQTATITCGGKNIESKSVHWYQQKPGQAPVLVVSDDTDRASGIPERFSGSNSGGAATLTISRVEAGDEADYYCQVWDSPSDHYVFGPGTKLTVLSGGSTITSYNVYYTKLSSSGTQVQLVESGGGVVQPGRSLRLSCAASGFTFSSYAMHWVRQAPGKGLEWVAVISYDGSNKYYADSVKGRFTISRDKAKNTLYLQMNSLRGEDTAVYYCARELSYYDSSGYLRGDWYFDLWGRGTLVTVSS
For B3, the Kd in [1] and in [3] was 65.3 nM throughout.

B4: H01 scFv (scFv)
scFv: QPGLTQPPSVSLAPGQTARITCGGNNIGSKSVHWYQQKPGQAPVLVVYDDSDRPSGIPERFSGSNAGNTATLTISRVEAGDEADYYCQVWDSRSDQYVFGTRTKLTVLSGGSTITSYNVYYTKLSSSGAQVTLKESGPVLVKPTETLTLTCTVSGFSLSNARMGVSWIRQPPGKALEWLAHIFSNGEKSYSTSLKSRLTISKDTSKSQVVLTMTNMDPVDTATYYCARTLDYYDSSGYLVGGAFDIWGQGTMVTVSS
notes: also called H1
As to B4, the equilibrium dissociation constant (Kd) in [1], in experiment [4] and in [2] was 66.4 nM each time.

B5: F07 IgG1 (antibody, V domains shown)
VH: QVQLVQSGAEVKKPGSSVRVSCKVSGYTFTGYYMHWVRQAPGQGLEWMGIINPSGGSTSYAQKFQGRVTMTRDTSTSTVYMELSSLRSEDTAVYYCARVRVGASDAFDIWGQGTMVTVSS
VL: SYVLTQPPSVSVAPGQTARITCGGNNIGSKSVHWYQQKPGQAPVLVVYDDSDRPSGIPERFSGSNSGNTATLIISRVEAGDEADYYCQVWDSSSVHYVFGTGTKLTVL
On to B5, for which the “normalized analyte binding to RBD2 held by the immobilized ligand” value (shortened to “normalized analyte binding to RBD2 held”) was 0.1 in experiment [5]; 1.39 in experiment [6]; -0.05 in experiment [8]; 2.34 in experiment [10]; 0.07 in experiment [11]; 1.28 in experiment [12]. The “normalized analyte binding to RBD2 held” value was 0.9 in experiment [13]; 1.48 in experiment [15]; 1.9 in experiment [16]; 0.14 in experiment [17]; 1.78 in experiment [18]. Besides, the Kd in experiment [7], in experiment [14] and in experiment [20] was 300 nM each time. Besides, the “NT50 (nM), half neutralization titer” value in experiment [9] is 45.2 nM. In [9], the “Nmax (%), neutralization maximum” value came to 74.7%. For the same molecule, the binding result in experiment [19] was “no binding (tested: 1 ug/mL)”.

B6: H05 IgG1 (antibody, V domains shown)
VH: QVQLVQSGAEVKKPGSSVKVSCKASGGTFSSYAISWVRQAPGQGLEWMGGIIPIFGTANYAQKFQGRVTITADESTSTAYMELSSLRSEDTAVYYCARSIFGVVIISHADGYYYGMDVWGQGTTVTVSS
VL: SYVLTQPPSVSVAPGQTARITCGANNIGRISVHWYQQKPGQAPVLVVYDDSDRPSGIPERFSGSNFGNTATLTISRVEAGDEADYYCQVWDSYSDHVIFGGGTKLTVL
notes: also called H5; HO5
Take B6: the “normalized analyte binding to RBD2 held” value in [5] was -0.1; in experiment [6], -0.17; in [8] it was 1.75; in experiment [11], 0.9; in experiment [12] it was 1.73; in [13], -0.15. Besides, the “normalized analyte binding to RBD2 held” value was 1.35 in experiment [15], 1.81 in [16], 0.9 in [17] and -0.12 in experiment [18]. In addition, the dissociation constant Kd turned out to be 51 nM in [7], 46 nM in [14] and 51 nM in [20].

B7: H05 scFv (scFv)
scFv: SYVLTQPPSVSVAPGQTARITCGANNIGRISVHWYQQKPGQAPVLVVYDDSDRPSGIPERFSGSNFGNTATLTISRVEAGDEADYYCQVWDSYSDHVIFGGGTKLTVLSGGSTITSYNVYYTKLSSSGTQVQLVQSGAEVKKPGSSVKVSCKASGGTFSSYAISWVRQAPGQGLEWMGGIIPIFGTANYAQKFQGRVTITADESTSTAYMELSSLRSEDTAVYYCARSIFGVVIISHADGYYYGMDVWGQGTTVTVSS
notes: also called H5
As for B7, the Kd in [1], in experiment [4] and in experiment [2] was 16.7 nM in each case.

B8: R04 scFv (scFv)
scFv: EIVMTQSPSSLSASVGDRVTITCQASQDISNYLNWCQQKPGKAPKLLIYDASNLETGVPSRFSGSGSGTGFTFTISSLQPEDFATYYCQQSYSTPYTFGQGTKVEIKSGGSTITSYNVNYTKLSSSGAQVQLQQSGPGLVKSSQTLSLTCAISGDSVSSNGAAWHWIRQSPSRGLEWLGRTYYRSGWYNDYAVSVKSRITINQDTSKNQFSLQLNSVTPEDTAVYFCAREGGGGRMDVWSQGTTVTVSS
As for B8, the Kd was 293 nM in experiment [1]; > 280 nM and < 421 nM and 423 nM in experiment [21]; 293 nM in experiment [2]; 293 nM in [3].
